Measured values published in patent US12065466B2, “Methods and compositions for protein sequencing” (Quantum-Si Incorporated, priority 2020, dated 2024).
Each block holds one molecule with its values, some of them ahead of it.

How the values were obtained:
[1] = target: N-terminal phenylalanine peptide (alanine at the penultimate position); assay: Fluorescence polarization binding affinity of tandem recognizers, FA peptide
Experimental: The multivalent binder PS651 was designed as a tandem fusion molecule expressed from a single coding sequence containing segments encoding three copies of atClpS2-V1 (Tris-atClpS2-V1) joined end-to-end by segments encoding a flexible peptide linker (Linker 2). Fluorescence polarization studies were performed with PS651, the Bis-atClpS2-V1 binders (PS609, PS610, PS611), and the monomeric binder atClpS2-V1, to determine the binding affinity of each for a peptide having an N-terminal phenylalanine residue with an alanine residue at the penultimate position. The KD values obtained from these studies are reported below in Table 9.

[2] = system: FITC labeled N-terminal LA peptide; assay: Stopped-flow association rate constant (kon), PS557 derivatives; format: binding
Experimental: Stopped-flow assays were performed to measure the association (kon) and dissociation (koff) rates for PS557, atClpS2-V1, and fusion proteins derived by C-terminal addition of protein shields. To measure the on-rate constant by stopped-flow, the binder was rapidly mixed with FITC labeled peptide, and the reaction was followed in real time. N-terminal LA peptide was used for PS557 derivatives and N-terminal FA peptide was used for atClpS2-V1 derivatives. In this assay, the fluorescence signal decreased due to quenching upon protein binding. The averaged traces obtained at multiple concentrations of binder were fitted with a decay equation to derive association rates (FIG. 37A, middle panel). A linear slope from the plot of association rates against different binder concentrations gave the kon rate constant (FIG. 37A, bottom panel).

[3] = system: peptides with different N-terminal amino acids, penultimate alanine; assay: Biolayer interferometry of multivalent amino acid binders; format: binding
[4] = system: labeled N-terminal LA peptide; assay: Stopped-flow dissociation rate (koff), PS557 derivatives; format: binding; conditions: excess unlabeled trap peptide
From the text: To measure the dissociation rate (koff) by stopped-flow, complexes of binder bound to labeled peptide substrate at an optimal concentration were rapidly mixed with excess unlabeled trap peptide. […] The averaged raw traces were fitted with an exponential equation to determine the koff (FIG. 37B, bottom panel).

[5] = system: amino acid at a terminal position of a polypeptide; assay: Amino acid binding preference of recognition proteins (Tables 1 and 2); conditions: Table 1, ClpS proteins; amino acid identity at a terminal position of a polypeptide; inferred from literature and/or demonstrated by the inventors
From the text: It should be appreciated that these sequences and other examples described herein are meant to be non-limiting, and recognition molecules in accordance with the application can include any homologs, variants thereof, or fragments thereof minimally containing domains or subdomains responsible for peptide recognition.

Kd [1]: 221 nM
B1: PS609: single polypeptide with two tandem copies of atClpS2-V1 joined by Linker 1 (SEQ ID NO: 243) (protein)
chain: MSDSPVDLKPKPKVKPKLERPKLYKVMLLNDDYTPMSFVTVVLKAVFRMSEDTGRRVMMTAHRFGSAVVVVCERDIAETKAKEATDLGKEAGFPLMFTTEPEEGGGSGGGSGGGSGMSDSPVDLKPKPKVKPKLERPKLYKVMLLNDDYTPMSFVTVVLKAVFRMSEDTGRRVMMTAHRFGSAVVVVCERDIAETKAKEATDLGKEAGFPLMFTTEPEEGHHHHHHHHHHGGGSGGGSGGGSGLNDFFEAQKIEWHEGGGSGGGSGGGSGLNDFFEAQKIEWHE

Binding Pref. [5]: I, L, V
B2: PS557: PS372-homologous ClpS protein, SEQ ID NO: 71 (protein, listed as Planctomycetes bacterium)
chain: MPTAASATESAIEDTPAPARPEVDGRTKPKRQPRYHVVLWNDDDHTYQYVVVMLQSLFGHPPERGYRLAKEVDTQGRVIVLTTTREHAELKRDQIHAFGYDRLLARSKGSMKASIEAEE
LA kon [2]: 0.0018 nM⁻¹ s⁻¹
N-terminal amino acids bound (biolayer interferometry) [3]: binds N-terminal I, L, and V
LA koff [4]: 0.22 s⁻¹

B3: PS698 (protein)
chain: MPTAASATESAIEDTPAPARPEVDGRTKPKRQPRYHVVLWNDDDHTYQYVVVMLQSLFGHPPERGYRLAKEVDTQGRVIVLTTTREHAELKRDQIHAFGYDRLLARSKGSMKASIEAEEHHHHHHHHHHGGGSGGGSGGGSGLNDFFEAQKIEWHEGGGSGGGSGGGSGLNDFFEAQKIEWHEGSAGSAAGSGEFMDKDCEMKRTTLDSPLGKLELSGCEQGLHEIKLLGKGTSAADAVEVPAPAAVLGGPEPLMQATAWLNAYFHQPEAIEEFPVPALHHPVFQQESFTRQVLWKLLKVVKFGEVISYQQLAALAGNPAATAAVKTALSGNPVPILIPCHRVVSSSGAVGGYEGGLAVKEWLLAHEGHRLGKPGLG
LA kon [2]: 0.004 nM⁻¹ s⁻¹
LA koff [4]: 0.19 s⁻¹
